The results in this text go back to paper PMC8247850, “The Peculiar Case of the Hyper‐thermostable Pyrimidine Nucleoside Phosphorylase from Thermus thermophilus” (Chembiochem, 2021).

Data set [1] concerns the target T1, TtPyNP (Thermus thermophilus pyrimidine nucleoside phosphorylase) (Thermus thermophilus, UniProt Q5SHF9).
T1 construct: gene TTHA1771
T1 sequence (Q5SHF9 1-423): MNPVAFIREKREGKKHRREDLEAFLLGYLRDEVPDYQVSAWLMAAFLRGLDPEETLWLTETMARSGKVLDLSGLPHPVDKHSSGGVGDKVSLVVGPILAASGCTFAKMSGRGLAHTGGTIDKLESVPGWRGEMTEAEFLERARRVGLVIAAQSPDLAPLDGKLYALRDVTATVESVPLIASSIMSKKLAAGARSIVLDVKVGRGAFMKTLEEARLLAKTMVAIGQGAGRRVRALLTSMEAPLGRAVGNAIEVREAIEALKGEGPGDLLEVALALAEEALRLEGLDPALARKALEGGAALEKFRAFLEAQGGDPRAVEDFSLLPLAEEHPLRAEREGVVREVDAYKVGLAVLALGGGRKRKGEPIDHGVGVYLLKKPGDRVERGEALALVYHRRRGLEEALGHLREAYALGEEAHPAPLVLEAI
The note with it: co-substrate uridine.

Substrate in data set [2]: O=c1ccn([C@@H]2O[C@H](CO)[C@@H](O)[C@H]2O)c(=O)[nH]1
Briefly: UV spectral unmixing of phosphorolysis initial rates. The class given is biochemical, Thermus thermophilus. The conditions noted are these: 80 °C, pH 7, saturating phosphate, Michaelis-Menten-like only up to 1-2 mM, inhibition at higher concentration.

With `O=P(O)(O)O` [phosphate], the “K M” value in data set [1] is “saturating phosphate concentrations for which typical Michaelis–Menten behavior was observed; Figure S4”.

B1: TtPyNP (Thermus thermophilus pyrimidine nucleoside phosphorylase) (Thermus thermophilus HB8) (protein)
chain: T1 sequence (Q5SHF9 1-423)
notes: tag not described in the main text
Regarding B1, in data set [2], the Km was found to be 5.92 ± 8.72 mM and the kcat is 624.89 ± 823.49 s⁻¹.
